These results are taken from article PMC2592534.

Some targets named below: rat ficolin-A M57E (rat); rat ficolin-A M57S (rat); rat ficolin-A O54A (rat) (UniProt Q9WTS8); rat ficolin-A P59A (rat) (UniProt Q9WTS8).
Holding throughout (assay): SPR

rat ficolin-A P59A (rat), sequence (Q9WTS8 18-335 P76A): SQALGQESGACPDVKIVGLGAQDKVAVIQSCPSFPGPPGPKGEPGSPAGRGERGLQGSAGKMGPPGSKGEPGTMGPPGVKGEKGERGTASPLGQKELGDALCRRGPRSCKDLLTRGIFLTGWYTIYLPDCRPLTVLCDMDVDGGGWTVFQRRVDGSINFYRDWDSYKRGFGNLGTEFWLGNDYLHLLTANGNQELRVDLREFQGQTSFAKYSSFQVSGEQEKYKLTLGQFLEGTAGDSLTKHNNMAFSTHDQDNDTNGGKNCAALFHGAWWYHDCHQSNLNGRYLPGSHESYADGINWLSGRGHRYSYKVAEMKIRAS
rat MASP-2A (catalytically inactive MBL-associated serine protease-2, Ser613 to Ala), sequence (Q9JJS8 20-685 S632A): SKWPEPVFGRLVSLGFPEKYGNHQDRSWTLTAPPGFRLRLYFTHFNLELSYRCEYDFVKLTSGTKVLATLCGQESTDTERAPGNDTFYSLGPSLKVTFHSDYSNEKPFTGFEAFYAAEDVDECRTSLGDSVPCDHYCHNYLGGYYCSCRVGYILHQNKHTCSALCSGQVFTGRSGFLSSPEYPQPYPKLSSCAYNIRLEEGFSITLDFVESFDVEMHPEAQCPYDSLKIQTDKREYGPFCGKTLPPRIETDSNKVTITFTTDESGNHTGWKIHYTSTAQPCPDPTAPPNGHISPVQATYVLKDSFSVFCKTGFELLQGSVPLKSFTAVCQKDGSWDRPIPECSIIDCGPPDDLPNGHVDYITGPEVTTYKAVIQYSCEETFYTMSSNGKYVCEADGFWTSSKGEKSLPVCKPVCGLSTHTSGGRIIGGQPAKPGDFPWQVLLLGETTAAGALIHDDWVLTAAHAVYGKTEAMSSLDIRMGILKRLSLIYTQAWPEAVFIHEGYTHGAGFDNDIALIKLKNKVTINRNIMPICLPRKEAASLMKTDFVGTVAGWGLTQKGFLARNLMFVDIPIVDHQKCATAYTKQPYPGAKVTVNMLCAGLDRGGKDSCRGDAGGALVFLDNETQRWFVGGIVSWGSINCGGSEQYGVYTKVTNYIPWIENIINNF
rat ficolin-A O54A (rat), sequence (Q9WTS8 18-335 P54A): as the sequence (Q9WTS8 18-335 P76A) above, with P37A, A59P counted along it

Consider “rat MASP-2A (catalytically inactive MBL-associated serine protease-2, Ser613 to Ala) (from UniProt Q9JJS8 20-685) (enzyme)”, for which, in the assay with rat ficolin-A M57E (rat), the KD1 (apparent, two-complex, parallel reaction model) is 49 nM; the KD2 (apparent, two-complex, parallel reaction model) was 3.23 µM; the koff of complex 2 (two-complex, parallel reaction model) came to 0.0094 s⁻¹. In the assay with rat ficolin-A M57S (rat), the KD1 (apparent, two-complex, parallel reaction model) stood at 11.6 nM; the KD2 (apparent, two-complex, parallel reaction model) stood at 133 nM; the koff of complex 2 (two-complex, parallel reaction model) came out at 0.0048 s⁻¹; the kon of complex 1 (two-complex, parallel reaction model) is 410000 M⁻¹ s⁻¹. In the assay with rat ficolin-A M57S (rat), the kon of complex 2 (two-complex, parallel reaction model) came to 37000 M⁻¹ s⁻¹. The KD2 (apparent, two-complex, parallel reaction model) in the assay with rat ficolin-A O54A (rat) came out at 153 nM. Also, in the assay with rat ficolin-A P59A (rat), the KD1 (apparent, two-complex, parallel reaction model) came out at 6.8 nM; the KD2 (apparent, two-complex, parallel reaction model) is 253 nM; the kon of complex 1 (two-complex, parallel reaction model) amounted to 1.13e+06 M⁻¹ s⁻¹; the kon of complex 2 (two-complex, parallel reaction model) is 42000 M⁻¹ s⁻¹.
